Laboratory results from US20220031806A1 (Five Prime, published 2022).

Molecular target: T1, mouse PD-L1 on mouse splenocytes (mouse, UniProt Q9EP73 19-290)
T1 construct: whole, on cells
Assay: flow cytometry receptor occupancy on BALB/c and C57Bl/6 splenocytes, free PD-L1 by competing Ab clone
Description: FIGS. 1A and 1B: Mouse splenocytes were evaluated for mCD80-Fc engagement and receptor occupancy. (A) Splenic immune cell subsets were identified as CD11b+ DCs (B220-Thy1.2−CD49b−CD11c+CD11b+), CD11b− DCs (B220− Thy1.2−CD49b-CD11c+CD11b−), Macrophages (B220−Thy1.2−CD49b−CD11c−CD11b+), NK cells (B220− Thy1.2−CD49b+), and T cells (CD3+CD4+ or CD3+CD8+) by flow cytometry. Representative flow cytometry plots depict the gating strategy. (B) Increasing concentrations of mCD80-Fc were incubated with mouse splenocytes (BALB/c strain top row; C57Bl/6 strain bottom row), and mCD80-Fc engagement was measured both via biotin-labeled anti-mIgG followed by streptavidin Alexa488 (“bound drug”) and by detection of CD80 ligands with competing Ab clones (“free” PD-L1 or CD28) enumerated as Antibody Binding Capacity (ABC) values. CTLA-4 was not detected on any immune cell evaluated (data not shown). L.D., limit of detection of ABC. Graphs depict mean±SD of n=3 animals/strain measured in technical duplicates. […]
Mouse splenocytes were prepared from adult BALB/c and […] mice by methods known to those of ordinary skill in the art. […] Data from the samples was acquired on a BD LSRII or BD LSRFortessa and analyzed using FlowJo, Excel, and Graphpad Prism.

T1 sequence (Q9EP73 19-290): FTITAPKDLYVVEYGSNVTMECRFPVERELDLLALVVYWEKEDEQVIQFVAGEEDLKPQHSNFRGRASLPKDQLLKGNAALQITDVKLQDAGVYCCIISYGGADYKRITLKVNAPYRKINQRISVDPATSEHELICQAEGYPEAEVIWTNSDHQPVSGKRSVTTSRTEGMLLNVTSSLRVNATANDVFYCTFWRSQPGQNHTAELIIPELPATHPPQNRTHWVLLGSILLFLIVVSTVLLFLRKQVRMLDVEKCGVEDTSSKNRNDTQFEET

B1: mouse surrogate fusion protein comprising the extracellular domain (ECD) of murine CD80 linked to the Fc domain of mouse IgG2a wild type (mCD80-Fc) (Fc fusion)
chain: VDEQLSKSVKDKVLLPCRYNSPHEDESEDRIYWQKHDKVVLSVIAGKLKVWPEYKNRTLYDNTTYSLIILGLVLSDRGTYSCVVQKKERGTYEVKHLALVKLSIKADFSTPNITESGNPSADTKRITCFASGGFPKPRFSWLENGRELPGINTTISQDPESELYTISSQLDFNTTRNHTIKCLIKYGDAHVSEDFTWEKPPEDPPDSKNEPRGPTIKPCPPCKCPAPNLLGGPSVFIFPPKIKDVLMISLSPIVTCVVVDVSEDDPDVQISWFVNNVEVHTAQTQTHREDYNSTLRVVSALPIQHQDWMSGKEFKCKVNNKDLPAPIERTISKPKGSVRAPQVYVLPPPEEEMTKKQVTLTCMVTDFMPEDIYVEWTNNGKTELNYKNTEPVLDSDGSYFMYSKLRVEKKNWVERNSYSCSVVHEGLHNHHTTKSFSRTPGK
notes: also called Murine CD80 ECD Fusion Molecules; Mouse CD80 ECD mouse Fc IgG2a
binding result: no binding (tested: 0-1000 µg/mL)
